From the supplement of paper PMC9112550, “Optimization of the antimicrobial peptide Bac7 by deep mutational scanning” (BMC Biology, 2022)

test system: Escherichia coli TOP10; assay: shrunken log2 fold change of peptide-encoding DNA abundance (4.5 h post-induction vs induction); higher = less antimicrobial activity (less host growth inhibition); conditions: time post-induction: 4.5 h; library: site-saturation at positions 5, 18, 19, 20
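Also: peptides expressed intracellularly from a pBAD plasmid library in pooled LB shake-flask culture, induced with 0.3% L-arabinose, DNA abundance read by NGS, three biological replicates, DESeq2 with apeglm shrinkage.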

Sequence | shrunken log2 fold change
RRIRHRPPRLPRPRPRPESYPRP | -0.012
RRIRSRPPRLPRPRPRPNPRPRP | 0.0955
RRIRPRPPRLPRPRPRPKNKPRP | -0.187
RRIRMRPPRLPRPRPRPWQPPRP | -0.0454
RRIRCRPPRLPRPRPRPDNCPRP | 0.0206
RRIRTRPPRLPRPRPRPKSCPRP | -0.0893
RRIRARPPRLPRPRPRPKQPPRP | 0.516
RRIRQRPPRLPRPRPRPKFVPRP | -0.105
RRIRIRPPRLPRPRPRPMNKPRP | -0.627
RRIRQRPPRLPRPRPRPCPMPRP | -0.203
RRIRTRPPRLPRPRPRPRFWPRP | 0.0622
RRIRARPPRLPRPRPRPIQIPRP | -0.103
RRIRSRPPRLPRPRPRPEGQPRP | 0.193
RRIRDRPPRLPRPRPRPDGLPRP | 0.107
RRIRERPPRLPRPRPRPPRCPRP | -0.0309
RRIRTRPPRLPRPRPRPDFYPRP | -0.241
RRIRIRPPRLPRPRPRPTAVPRP | 0.028
RRIRCRPPRLPRPRPRPNGKPRP | -0.8
RRIRPRPPRLPRPRPRPATFPRP | -0.305
RRIRGRPPRLPRPRPRPPSNPRP | 0.374

Sequence | shrunken log2 fold change
RRIRDRPPRLPRPRPRPEFSPRP | 0.221
RRIRPRPPRLPRPRPRPQSTPRP | -0.136
RRIRMRPPRLPRPRPRPPIQPRP | 0.693
RRIRPRPPRLPRPRPRPTWRPRP | 0.639
RRIRARPPRLPRPRPRPIIHPRP | -0.216
RRIRLRPPRLPRPRPRPDISPRP | 0.0207
RRIRCRPPRLPRPRPRPKQRPRP | 0.222
RRIRERPPRLPRPRPRPCTAPRP | -0.337
RRIRHRPPRLPRPRPRPPVRPRP | 0.16
RRIRVRPPRLPRPRPRPTYGPRP | -0.838
RRIRFRPPRLPRPRPRPPGHPRP | 0.337
RRIRLRPPRLPRPRPRPVVQPRP | 0.0325
RRIRIRPPRLPRPRPRPKYFPRP | -0.288
RRIRLRPPRLPRPRPRPCNVPRP | -0.3
RRIRARPPRLPRPRPRPAEQPRP | 0.728
RRIRGRPPRLPRPRPRPQIMPRP | 0.173
RRIRARPPRLPRPRPRPSHFPRP | -0.0734
RRIRIRPPRLPRPRPRPRPVPRP | 0.371
RRIRRRPPRLPRPRPRPNRKPRP | 0.105
RRIRSRPPRLPRPRPRPDCIPRP | -0.163

Sequence | shrunken log2 fold change
RRIRKRPPRLPRPRPRPELDPRP | 0.121
RRIRLRPPRLPRPRPRPFDEPRP | 0.0466
RRIRCRPPRLPRPRPRPLSPPRP | 0.107
RRIRLRPPRLPRPRPRPAGTPRP | 0.216
RRIRVRPPRLPRPRPRPWEFPRP | -0.102
RRIRARPPRLPRPRPRPMMYPRP | -0.134
RRIRYRPPRLPRPRPRPTIYPRP | -0.939
RRIRNRPPRLPRPRPRPKLPPRP | 0.0992
RRIRQRPPRLPRPRPRPLAVPRP | 0.0758
RRIRIRPPRLPRPRPRPLSSPRP | -0.143
RRIRFRPPRLPRPRPRPYRSPRP | -0.975
RRIRRRPPRLPRPRPRPTNTPRP | 0.142
RRIRHRPPRLPRPRPRPYTWPRP | -1.02
RRIRIRPPRLPRPRPRPIRMPRP | -0.346
RRIRYRPPRLPRPRPRPESVPRP | -0.316
RRIRMRPPRLPRPRPRPTWRPRP | 0.894
RRIRLRPPRLPRPRPRPVAWPRP | 0.225
RRIRARPPRLPRPRPRPHKPPRP | 0.148
RRIRWRPPRLPRPRPRPKSTPRP | 0.126
RRIRDRPPRLPRPRPRPNFMPRP | -0.316
